Data from the nanobody polyreactivity screen of Harvey et al. (2022).

experiment: yeast display, Sf9 membrane polyspecificity reagent, FACS + sequencing; frameworks hold sequencing errors
Method in brief: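 Sorting gates, low and high (top ~1%), were placed on anti-HA fluorescence to track expression and on streptavidin fluorescence to track reagent binding. A clone's polyreactivity label is taken from the gate it came out of. The reagent was 10% biotinylated, detergent-solubilized Sf9 membrane, applied for 1 hour at 4 °C to galactose-induced yeast display cells.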

Sequence	polyreactivity (PSR sort gate)
QVQLVESGGGLVQAGGSLRLSCADSGFIIFRYAMGWYRQAPGKERELVAAITDDGSTYADSVKGRFTISRDNAKNTVYLQMNSLKPEDTAVYYCNVQSKSSYWWFGYDYWGQRTQVTVSS	low polyreactivity
QVHLVESGGGLVQAGGSLRLSCAAYGSTFTWYARGWYRQAPGKERELVADISYGGGSTYYADSVKGRFTISRDNAKNTVYLQMNSLKPEDTAVYYCAAESIPYYRYDYWGQGSQVTVSS	low polyreactivity
QVQLVESGGGLVQAGGSLRLSCAASGIIFQFYAMGWYRQAPGKERELVAAISRSGGITHYADSVKGRFTISRDTAQNTVYLQMNSLKPEDTAVYYCAAVRQAYPRLDYWGQGTQVTVSS	high polyreactivity
QVQLVESGGGLVQAGGSLRLSCAASGSIFRSNTMGWYRQAPGKERELVASITRGGSTNYADSVKGRFTISRDNAKNTVYLQMNSLKPEDTAVYYCIARRTVRYYFSYGYWGQGTQVTVSS	high polyreactivity
QVQLVESGGGLVQAGGSLRLSCAASGLTFRYNAMGWYRQAPGKERELVAAIRTSGGSTYYADSVKGRFTISRDNAKNTVYLQMNSLKPEDTAVYYCAARSKSYYGGYARGYWGQGTQVTVSS	high polyreactivity
QVQLVESGGGLVQAGGSLRLSCAASGSTFWENSMGWYRQAPGKERELVAAISWGGGSTYYADSVKGRFTISRDNAKNTVYLQMNSLKPEDTAGYYCAADQTSPQFLTSYGGYNYWGQGTQVTVSS	low polyreactivity
QVQLVESGGGLVHAGGSLRLSSAASGRTFKVYAMGWYRQAPGKERELVAAITGGGSTNYADSVKGRFTISRDNAKNTVYLQMYSLKPEDTAVYYCNARYYYRLVKWSRFSSYDYWGQGTQVTVSS	low polyreactivity
QVQLVESGGGLVQAGGSLRLSCAAYGRIFYYNRMGWYRQAPGKERELVADISFSDGSTYYADSVKGRFTISRDIAKNTVYLQMNSLKPEDTAVYYCAAVIGYDYDYWGQVTQVTVSS	low polyreactivity
QVQLVESGGCLVQAGGSLRLSCAASGFIFWDYAMGWYRQAPGKERELVAAISDSGGDKYYADSVKGRFTISRDNAKNTVYLQMNSLKPEDTAVYYCAADVELWVFRGQQYDYWGQGTQVTVSS	low polyreactivity
QVQLVESGGGLVQAGGSLRLSCAASGRIFRPYVMGWYRQAPGKERELVAAISYRGSSTYYADSVKGRFTISRDNAKNTVYLQMNSLKPEDTAVYYCAAYPRVYWTKEYDYWGQGTQVTVSS	high polyreactivity
QVQLVESGGGLVQAGGSLRLSCAASGSIFVKNAMGWYRQAPGKERELVARSSFSGGSTYYADSVKGRFTISRDNAKNTVYLQMNSLKPEDTAVYYCAVDGGEFSSYGYWGQGTQVTVSS	low polyreactivity
HVQLVESGGGLVQAGGSLRLSCAASGSIFSENTMGWYRQAPGKEWELVAAISWSGGSTNYADSVKGRFTISRDNAKNTVYLQMNSLKPEDTAVYYCAKDVGSADPTYYYWGQGTQVTVSS	low polyreactivity
QVQLVESGGGLVQAGGSLRLSCAASGSIRHNTIGWYRQAPGKESEFVASISKRGGSTYYADSVKGRFTISRDNAKNTVYLQMNSLKPEDTAVYYCNAGAVTFVGRDYWGQGTQVTVSS	high polyreactivity
QVQLVESGGGLVQAGGSLRLSCAASGITFKRNAMGWYRQAPGKERELVAAISTTGGRTYYADSVKGRFTISRDNAKNTVYLQMNSLKPEDTAVYYCAARGGPVTYDYWGQGTQVTVSS	high polyreactivity
QVQLVESGGGLVQAGGSLRLSCAASGLTISWYAMGWYRQAPGKEWELVAAISTRGGRTYYADSVKGRFTISRDNAKNTVYLQMNSRKQEDNAVYYCAAGVYYRYLWLFDYWGQGTQVTVSS	high polyreactivity
QVQLVESGGGLVQAGGSLRLSCAASGTFDAYAMGWYRQAPGKERELVASISSSGGSTYYADSVKGRFTISRDNAKNTVYLQMNSLKPEDTAVYYCAATDFWYSGYYWGQGTQVTVSS	low polyreactivity
QVQLVESGGGLVQAGGSLRLICAASGIIFAWYVMGWSRQAPGKERELVAAITQSGGSTFYADSVKGRFTISRDNAKNTVYLQLNSLKPEDTAVYYCNTDYFFNVPEMDSWGQGTQVTVYS	low polyreactivity
QVQLVESGGGLDQAGGSLRLSCAASGFIFGRYTMVWYRPAPGKEMELVAAISRGGITNYADSEKGRFTISRDNAKNTVYLQMNSLKPEDTAVYYCATTRDYWRGRSYYYWGQGTQVTVSS	high polyreactivity
QDQLVESGGGLVQAGGSLRLSCAASGRIFGWYAMGWYRQAPGKEREFVAAISRGGSTNYADSVKGRFTISRDNAKNTVYLQMNSLKAEDTAVYYCNARKRGSRLRREFDYWGQGTQVTVST	high polyreactivity
QVQLVESWGGLDQAGGSLRLSCAASGSTFYAYAMGWYRPAPGKERELVAAISSDGTNYADSVKGRFTISRDNAKNTVYLQMNSLKPEDTAVYYCAADLLLYSSQDNDFWGQGTQVTVSS	low polyreactivity
QVQLVESGGGLVQAGGSLRLSCAASGRTFYYNAKGWYRQAPGKERELVARITSSGGSTYYADSVKGRFTISRDTSKNTVFLQMNSLKPEDTAVYYCAAGRSRYLWFGRDFDYWGQGTQVTVSS	low polyreactivity
QVQLVESGGGLVQAGGSLRLSCAASGFTFGYYAMGWYRQAPGKERELVAAITYDGDITYYADSVKGRFTISRDNAKNTVYLQMNSLKPEVTAVYYCNRDVLTFNYDYWGQGTQVTVSS	low polyreactivity

Sequence	polyreactivity (PSR sort gate)
QVQLVESGGGLVQAGGTLRLSCAASGSIFRYYAMGWYRQAPGKERELVATITSTGGSTYYADSVKGRFTISRDNAKNTVYLQMNSLKPEDTAVYYCAARNKLYVTVRGYYLSGYWGQGTQVTVSS	high polyreactivity
QVQLVESGGGLVQAGGSLRLSCAASGRTFRFYVMGWYRQAPGKERELVAAISRGGGSTYYADSVKGRFTISRDNAKNTVYLQMNSLKPEDTAVYYCAAKPYKTRSSYWGDYYWGQGTQVTVSS	high polyreactivity
QVKLVDSGGGLVQAGGSLRLSCAASGRIIRINAMGWYRQAPGKERELVAAITRGGTTYADSVKGRFTISRDNAKNTVYLQMNSLKPEDTAVYYCNARTGRSPTGFRYWGQGTQVTVSS	high polyreactivity
QVQLVESGGGLVQAGGSLRLSCAASGFIFYTYTRGWSRQAHGKERELVAAISYSGGRTYSADSVKGRFTISRDNAKNTVYLQMNSLKPEDTAVYYCAARRYYNSVANENNYWGQGTQVTVSS	high polyreactivity
QVQLVESGGGLVQAGGSLRLICAASGGTFYDYAMGWYRQAPGKERELVAAISASGDSTYYADSVKGRFTISRDNAKNTVYLQMNSLKPEDTAVYSCAAEFTAFDGFDYWGQGTQVTVSS	low polyreactivity
QVQLVESGGGLVQAGGSLRLSCAASGSIFKFYTMGWYRQAAGKEWELVATISRSGGGTFYADSVKGRFTISRDNAKNTVYLQMNSLKPEDTAVYYCAADPAFTHYPYGYGYWGQGTQVTVSS	low polyreactivity
QVQLVESGGGLVQAGGSLRLSCAASGSIFYYYAMGWYRQAPGKERELVADISRSGTSTYYADSVKGRFTISRDNAKNTVYLQMNSLKPEDTAVYYCNVLRVKSITYLMDYWGQGTQVTVSS	high polyreactivity
HVQLVESGGGLVQAGVSLRLSCAASGRLLEGYAMGWYRQAPGKERELVAAISFSTTTTYYADSVKGRFTISRDNAKNTVYLQMNSLKPEDTAVYYCAADSQQSDYDYWGQGTQVTVSS	high polyreactivity
QVQLVESGGGLVQAGGSLRLSCAASGFTLEFYAMGWYRQAPGKERELVAAISKSGGSTYYADSVKGRFTISRDNAKNTVYLQMNSLKPEDTAVYYCAKVNSYGPVPDRYDYWGQGTQVTVSS	high polyreactivity
QVQLVESGGGLLQAGVSLRLSCASSGRIIDRNAMGWYRQAPGKERELVAAISSSGSTNYADSVKGRFTISRDNAKNTVYLQMNSLKPEDTAVYYCDARWRSVLAAGTRPVSFDYWGQGTQVTVSS	low polyreactivity
QVQLVESGGGLVQAGGSLRLSCAASGSIFAKYAMGWYRQAPGKERELVAAISSGGSTYYADSVKGRFTISRDNAKNTVYIQMNSLKPEDTAVYYCAADYGSDYTKGDYWGQGTQVTVSS	low polyreactivity
QVQLVESGGGFVQAGGSLRLSCAACGRIFATYAMRWYRQAPGKERELVASFSYSDGSTYADSVKGRFTISRDNAKNTVYLQMNSLKPEDTAVYYCAAERLTHWGAFAAYDYWGQGTQVTVSS	low polyreactivity
QVQLVESGGGLVQAGGSLRLSCAASGSTFRYYGMGWYRQAPGKERELVATINRGGRTYYADSVKGRFTISRDNAKNTVYLQMNSLKPEDTAVYYCAADYYYYVACVHDDYWGQGTQVTGSS	low polyreactivity
QVQLVESGGGLVQAGGSLRLSCAASGRIFPKYAMGGDRQAPGTERPLVAAISSSGGSKYYADSVKGRFTISRDNAKNTVYFQMNSLKPEDTAVYYCNVDKATRDRYPGFDYWGQGTQVTVSS	high polyreactivity
QVQLVESGGGLVQAGGSLRLSCAASGSTFSYNAMGWYRQAPGKERELVAAISRGDVSTYYADSVKGRFTISRDNAKNTVYLQMNSLKPEDTAVYYCADYWYGSQYKWRYDYWGQGTQVTVSS	low polyreactivity
QVQLVESGGGLVQAGGSLRLSCAASGSTFRGYAMGWYRQAPGKERELVATITSGGSTNYADSVKGRFTISRDNAKNTVYLQMNSLKPEDTAVYYCNARWVPRYWKYFPANYGYWGLGTQVTVSS	high polyreactivity
QVQLVESGGGLVQAGGSLRLSCAASGITFPDYDMGWYRQAPGKERELVAAITYRSGSTYYADSVKGRFTISRDNAKNTVYLQMNSLKPEDTAVYYCNKYGQVPGYFSLDYWGQGTQVTVSS	high polyreactivity
QVQLVESGGGLVQAGGSLRLSCAASGRILPLYAMGWYRQAPGKERELVARIDSGGSTNYADSVKGRFTISRDNAKNTVYLQMNSLKPEDTAVYYCAAVVTAQAFAYFTYGYDYWGQGTQVTVSS	low polyreactivity
QVQLVESGGGLDQAGGSLRLSCAASGSTFRYSVMGWSRQAPGKERELVAGISYRGGTTYYADSVKGRFTISRDNAKNTVYLQMNSLKPEDTAVYYCAADSTPYVLSGNYDYWGQGTQVTVSS	low polyreactivity
QVQLVESGGGLVQAGGSLRLSCAASGSIFSLNAMGWYRQAPGKERELVAASGGGSTYYADSVKGRFTISRDNAKNTVYLQMNSLKPEDSAVYYCAARVLTDELDYWGQGTQVTVSS	low polyreactivity
QVQLVDSGRGLVQAGGSLRLSCAASGGTFARNAMGWYRQAPGKERELVAAIRGGVSTNYADSVKGRFTISSDNAKNTVYLQMNSLKPEDTAVYYCNASPPTLEGYWGQGTQVTVSS	low polyreactivity
